{"source": "paper PMC10530080", "target": "recombinant human ATM, wild type (N-terminal FLAG-FKBP1A) (human) (UniProt Q13315)", "sequence (Q13315 whole entry, the tested form may be a part)": "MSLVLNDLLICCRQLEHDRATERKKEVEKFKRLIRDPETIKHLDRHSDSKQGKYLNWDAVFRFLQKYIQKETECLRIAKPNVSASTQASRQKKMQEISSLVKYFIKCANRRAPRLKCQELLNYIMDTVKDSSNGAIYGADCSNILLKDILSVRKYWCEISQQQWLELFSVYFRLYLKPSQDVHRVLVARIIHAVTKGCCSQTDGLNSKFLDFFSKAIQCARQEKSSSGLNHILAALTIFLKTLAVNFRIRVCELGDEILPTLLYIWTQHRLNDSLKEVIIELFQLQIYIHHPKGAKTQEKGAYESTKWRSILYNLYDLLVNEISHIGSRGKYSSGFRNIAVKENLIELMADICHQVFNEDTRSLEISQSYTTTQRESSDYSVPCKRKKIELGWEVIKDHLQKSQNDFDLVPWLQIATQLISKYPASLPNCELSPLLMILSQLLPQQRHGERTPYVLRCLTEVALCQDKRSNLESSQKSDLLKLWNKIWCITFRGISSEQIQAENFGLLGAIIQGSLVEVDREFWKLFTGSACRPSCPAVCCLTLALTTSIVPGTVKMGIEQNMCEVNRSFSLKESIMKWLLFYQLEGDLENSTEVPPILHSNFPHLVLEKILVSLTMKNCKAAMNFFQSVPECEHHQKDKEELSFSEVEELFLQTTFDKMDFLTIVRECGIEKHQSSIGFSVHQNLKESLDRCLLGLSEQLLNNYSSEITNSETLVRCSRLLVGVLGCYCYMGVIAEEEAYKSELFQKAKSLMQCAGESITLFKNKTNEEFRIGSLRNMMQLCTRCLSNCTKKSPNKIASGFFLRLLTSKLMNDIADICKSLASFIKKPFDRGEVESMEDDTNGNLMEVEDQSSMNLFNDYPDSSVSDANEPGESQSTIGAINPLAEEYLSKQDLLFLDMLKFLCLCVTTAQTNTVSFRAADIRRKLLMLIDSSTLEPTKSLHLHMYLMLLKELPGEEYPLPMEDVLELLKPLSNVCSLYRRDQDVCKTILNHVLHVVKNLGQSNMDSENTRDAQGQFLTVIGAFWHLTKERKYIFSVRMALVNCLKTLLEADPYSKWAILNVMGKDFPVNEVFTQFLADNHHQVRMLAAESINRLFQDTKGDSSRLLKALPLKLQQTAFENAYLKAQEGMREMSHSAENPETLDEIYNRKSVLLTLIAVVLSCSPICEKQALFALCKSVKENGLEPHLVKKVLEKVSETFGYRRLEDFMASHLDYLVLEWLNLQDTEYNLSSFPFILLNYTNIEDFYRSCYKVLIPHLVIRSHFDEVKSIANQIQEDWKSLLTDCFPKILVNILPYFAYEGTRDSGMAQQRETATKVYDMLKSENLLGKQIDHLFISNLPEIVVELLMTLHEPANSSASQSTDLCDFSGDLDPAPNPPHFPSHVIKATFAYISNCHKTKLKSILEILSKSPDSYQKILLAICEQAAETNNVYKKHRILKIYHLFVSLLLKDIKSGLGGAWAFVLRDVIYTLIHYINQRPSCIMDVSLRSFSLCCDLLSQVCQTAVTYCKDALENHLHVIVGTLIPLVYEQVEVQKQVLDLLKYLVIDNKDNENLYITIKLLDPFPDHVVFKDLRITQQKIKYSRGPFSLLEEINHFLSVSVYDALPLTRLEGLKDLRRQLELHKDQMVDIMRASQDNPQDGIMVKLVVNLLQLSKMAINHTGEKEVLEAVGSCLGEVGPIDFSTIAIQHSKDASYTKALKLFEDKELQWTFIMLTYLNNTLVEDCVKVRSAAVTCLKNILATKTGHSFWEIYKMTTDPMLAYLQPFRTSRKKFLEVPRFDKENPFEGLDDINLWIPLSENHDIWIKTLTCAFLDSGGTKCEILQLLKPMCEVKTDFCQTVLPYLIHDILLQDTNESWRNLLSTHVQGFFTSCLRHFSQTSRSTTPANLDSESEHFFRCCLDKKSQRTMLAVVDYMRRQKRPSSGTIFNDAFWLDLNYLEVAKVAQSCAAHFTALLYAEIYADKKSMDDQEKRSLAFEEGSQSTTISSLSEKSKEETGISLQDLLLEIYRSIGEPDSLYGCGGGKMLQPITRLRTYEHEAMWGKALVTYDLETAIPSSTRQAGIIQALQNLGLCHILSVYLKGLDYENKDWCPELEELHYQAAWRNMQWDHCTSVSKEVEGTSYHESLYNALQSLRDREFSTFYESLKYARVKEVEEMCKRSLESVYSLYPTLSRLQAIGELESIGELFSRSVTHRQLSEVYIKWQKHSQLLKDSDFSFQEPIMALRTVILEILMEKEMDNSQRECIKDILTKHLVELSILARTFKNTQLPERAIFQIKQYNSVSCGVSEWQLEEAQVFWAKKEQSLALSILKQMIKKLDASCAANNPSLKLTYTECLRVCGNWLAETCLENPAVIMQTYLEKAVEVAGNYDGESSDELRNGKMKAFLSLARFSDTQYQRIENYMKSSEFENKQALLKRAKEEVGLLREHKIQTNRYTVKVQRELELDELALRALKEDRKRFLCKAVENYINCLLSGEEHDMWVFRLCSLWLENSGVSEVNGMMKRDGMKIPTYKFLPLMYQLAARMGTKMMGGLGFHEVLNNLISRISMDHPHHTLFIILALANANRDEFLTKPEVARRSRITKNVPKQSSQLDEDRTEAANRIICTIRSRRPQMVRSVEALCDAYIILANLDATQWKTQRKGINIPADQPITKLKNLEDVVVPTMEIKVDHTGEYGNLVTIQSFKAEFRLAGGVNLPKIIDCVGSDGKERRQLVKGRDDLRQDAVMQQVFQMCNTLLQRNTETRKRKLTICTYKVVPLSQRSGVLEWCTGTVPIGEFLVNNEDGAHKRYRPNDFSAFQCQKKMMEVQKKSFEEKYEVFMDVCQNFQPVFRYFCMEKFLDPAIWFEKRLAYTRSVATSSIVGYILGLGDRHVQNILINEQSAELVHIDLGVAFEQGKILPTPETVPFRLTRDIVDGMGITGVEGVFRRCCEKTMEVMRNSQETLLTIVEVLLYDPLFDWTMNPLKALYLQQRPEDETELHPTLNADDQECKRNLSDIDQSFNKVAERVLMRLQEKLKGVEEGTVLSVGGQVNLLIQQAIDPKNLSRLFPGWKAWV", "data": [{"substance": "His-MBP-TEV-p53(1-102) (from UniProt P04637 1-102) (domain or fragment)", "values": [{"measurement": "KM for p53 substrate, ATM activated by H2O2 (Phos-tag gel kinase assay, Michaelis-Menten)", "result": 29, "unit": "µM"}, {"measurement": "KM for p53 substrate, basal conditions (Phos-tag gel kinase assay, Michaelis-Menten)", "result": 80, "unit": "µM"}, {"measurement": "KM for p53 substrate, in the presence of MRN and 350-base pair dsDNA (Phos-tag gel kinase assay, Michaelis-Menten)", "result": 24, "unit": "µM"}]}]}
